The source of these data is US20190111114A1 (BRIGHAM AND WOMEN S HOSPITAL, published 2019).

The target of this assay is T1, BCL11A, endogenous, in mouse erythroid (MEL) cells (mouse, UniProt Q9QYE3 1-835, limits assumed).
T1 sequence (looked up): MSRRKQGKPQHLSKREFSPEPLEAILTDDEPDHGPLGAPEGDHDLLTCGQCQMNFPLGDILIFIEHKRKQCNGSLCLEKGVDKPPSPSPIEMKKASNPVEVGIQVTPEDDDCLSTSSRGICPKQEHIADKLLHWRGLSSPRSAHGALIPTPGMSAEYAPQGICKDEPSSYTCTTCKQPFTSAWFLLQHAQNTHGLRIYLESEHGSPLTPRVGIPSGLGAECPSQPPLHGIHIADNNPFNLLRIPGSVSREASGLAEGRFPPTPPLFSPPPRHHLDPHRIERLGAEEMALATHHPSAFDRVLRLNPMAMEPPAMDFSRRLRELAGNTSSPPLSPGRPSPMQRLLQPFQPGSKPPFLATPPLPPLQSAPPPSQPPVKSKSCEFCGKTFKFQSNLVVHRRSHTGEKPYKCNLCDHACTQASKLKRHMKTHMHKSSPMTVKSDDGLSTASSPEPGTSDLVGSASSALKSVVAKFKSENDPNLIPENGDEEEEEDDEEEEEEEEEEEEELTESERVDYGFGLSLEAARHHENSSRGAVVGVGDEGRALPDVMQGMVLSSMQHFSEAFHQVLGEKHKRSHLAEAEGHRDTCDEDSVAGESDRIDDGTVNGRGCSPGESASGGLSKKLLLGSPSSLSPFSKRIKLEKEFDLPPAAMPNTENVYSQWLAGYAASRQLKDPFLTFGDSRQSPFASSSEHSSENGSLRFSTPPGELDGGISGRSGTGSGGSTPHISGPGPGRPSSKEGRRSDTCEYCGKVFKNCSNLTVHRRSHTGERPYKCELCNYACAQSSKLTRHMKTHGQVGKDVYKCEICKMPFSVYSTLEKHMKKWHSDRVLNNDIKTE
The experiment in a line: immunoprecipitation of tagged mouse LRF from MEL cells, Western blot. An excerpt:
FKPM values were obtained from RNA-Seq experiments. (B) Validation of Y2H results by IP. […] Protein samples from empty vector-transfected cells served as negative controls. (C) LRF/GATAD2B interaction was validated in mouse erythroleukemia (MEL) cells. Applicants generated a series of expression vectors encoding N- or C-terminally-tagged mouse LRF (mLRF) and performed IP in MEL cells. Applicants could pull-down NuRD components and endogenous LRF protein only when Applicants expressed the LRF tagged at the far C-terminus. Anti-HA antibody could pull down both endogenous and exogenous LRF plus NuRD components (far right lane), while antibody against Flag, which was placed 15 aa upstream of the HA tag, pulled down only exogenous LRF (2nd lane from the left). Although Applicants tested 5 different (2 original and 3 commercially-available) anti-LRF antibodies for IP in mouse cells, none could pull down endogenous mouse LRF protein. Native LRF in the large NuRD complex may be inaccessible to anti-LRF antibodies in mouse cells (a model shown on right). Applicants note that the BCL11A image is from a different membrane. (D) Knockout of LRF or BCL11A was confirmed by Western blot using anti-LRF or -BCL11A antibodies. GAPDH: loading control. (E) Relative copy number of indicated β-globin transcripts was determined by q-PCR, as described in FIG. 8C. […]

B1: mouse LRF tagged at the far C-terminus with Flag and HA (pMX-mCherry-FHC-mLRF), expressed in MEL cells (other, UniProt O88939 1-569, looked up)
chain: MAGGVDGPIGIPFPDHSSDILSGLNEQRTQGLLCDVVILVEGREFPTHRSVLAACSQYFKKLFTSGAVVDQQNVYEIDFVSAEALTALMDFAYTATLTVSTANVGDILSAARLLEIPAVSHVCADLLERQILAADDVGDASQPDGAGPTDQRNLLRAKEYLEFFRSNPMNSLPPTAFPWSGFGAPDDDLDATKEAVAAAVAAVAAGDCNGLDFYGPGPPADRPPAGDGDEGDSTPGLWPERDEDAPPGGLFPPPTAPPATTQNGHYGRAGAGTGEEEAAALSEAAPEPGDSPGFLSGAAEGEDGDAADVDGLAASTLLQQMMSSVGRAGDSDEESRTDDKGVMDYYLKYFSGAHEGDVYPAWSQKGEKKIRAKAFQKCPICEKVIQGAGKLPRHIRTHTGEKPYECNICKVRFTRQDKLKVHMRKHTGEKPYLCQQCGAAFAHNYDLKNHMRVHTGLRPYQCDSCCKTFVRSDHLHRHLKKDGCNGVPSRRGRKPRVRGVPPDVPAGAGAPPGLPDAPRNGQEKHFKDEEEDEEEASPDGSGRLNVAGSGGDDGAGGPAVATAEGNFAT
notes: also called exogenous LRF; not shown: Flag and HA tags at the 3' end of the cDNA, Flag placed 15 aa upstream of the HA tag
As to B1, the binding result is given as “no binding”.
